The values below come from US8703915B2, “Mutant proteins and methods for producing them” (Heptares Therapeutics Limited, priority 2009, dated 2014).

In data set [1] the test system is A2A receptor. Put plainly: Thermostability of A2A receptor in NECA agonist-bound state, solubilised in DDM. In kind it is physicochemical, human. The note with it: NECA agonist-bound state (400 nM), solubilised in DDM. As for the experimental part: (§1) In order to stabilise an agonist-bound conformation, a systematic Alanine-scan was performed in order to identify mutations that may stabilise the A2A receptor bound to its full agonist NECA. In this A2A agonist-bound study, L2.46 (L48A) is the most stabilising single mutant. When NECA is bound to the solubilised receptor, removing the L48 side chain (in A2A-L48A) dramatically increases the thermostability of the ligand-receptor complex resulting in an increase of 14° C. over the wild type receptor in the detergent DDM (FIG. 5a). […] We evaluated the signalling property of the A2A receptor by over-expressing the receptor in CHO cells. A2A agonist stimulation triggers the signal transduction through the Gs-trimeric complex and increases the intracellular cAMP level. The increase in intracellular cAMP can be detected by and quantified by using an anti-cAMP Mab antibody competition assay. […] However the signalling efficacy is reduced to 30% (FIG. 6).
A2AR-(2-316) expression was carried out by using the pRG/III-hs-MBP E. coli expression vector and DH5α cells. Cells were grown at 37° C. in 2 L flasks containing 500 mL of 2×TY medium supplemented with Ampicillin (100 μg/mL) and glucose (0.2% w/v). At OD600≈0.7, IPTG and theophylline were added at final concentrations respectively of 0.5 mM and 100 μM, and the temperature was reduced to 20° C. After 22 to 24 hours, cells were harvested in aliquots of 14 mL, centrifuged for 30 min and stored at −20° C. Both 5HT2C and M4 receptors were transiently expressed in HEK293T cells using GeneJuice transfection reagent used according to the manufacturers guidelines.
An aliquot of E. coli cells expressing wild type or mutant A2AR-(2-316) (14 mL) was thawed on ice and cells were resuspended in 500 μL of buffer A (50 mM Tris HCl mM/pH 7.4; 0.4 M NaCl, 250 μg/mL lysozyme (Sigma), 1 mg/mL DNAse I (Sigma), supplemented with complete EDTA-free Protease inhibitor cocktail (Roche)) and incubated 1 hour at 4° C. Samples were then sonicated 1 min at 4° C. using a cup-horn sonicator. […]

In data set [2] the target is T1, A2A receptor (Homo sapiens, UniProt P29274).
T1 construct: A2AR-(2-316) expression was carried out by using the pRG/III-hs-MBP E. coli expression vector; MBP (named only in the vector name); made in house; host or cells: E. coli DH5alpha
Put plainly: Thermostability of A2A receptor in ZM241385 antagonist-bound state, solubilised in DDM. The format is physicochemical. The note with it: ZM antagonist bound state (100 nM). As for the experimental part: as §1
A2AR-(2-316) expression was carried out by using the pRG/III-hs-MBP E. coli expression vector and DH5α cells. Cells were grown at 37° C. in 2 L flasks containing 500 mL of 2×TY medium supplemented with Ampicillin (100 μg/mL) and glucose (0.2% w/v). At OD600≈0.7, IPTG and theophylline were added at final concentrations respectively of 0.5 mM and 100 μM, and the temperature was reduced to 20° C. […]

The test system of data set [3] is A2A receptor. Put plainly: cAMP functional assay (HTRF), NECA stimulation of CHO cells over-expressing A2A receptor. The format is cell-based, human. As to conditions: intracellular cAMP, CHO cells. The procedure:
as §1
This assay takes advantage of Homogeneous Time-Resolved Fluorescence (HTRF) using cAMP labeled with the dye d2 in presence of an anti-cAMP Mab labeled with Cryptate. The method is based on a competitive immunoassay between cAMP produced by cells and the cAMP labeled with the dye d2. CHO cells were grown using Glutamax Ham's F12, 10% FBS in 96-well plates, clear bottom and Black wall (Costar). Cells were seeded at a density of 12500 cells per well, grown overnight, washed with PBS and then transfected with 100 ng of pcDNA-3-A2A(2-316) pre-incubated with 0.3 μL of GeneJuice (Novagen) per well. After 48 hours of receptor expression, the medium was removed, the cells were washed in PBS then stimulated by using different NECA concentrations, in the presence of Rolipram (50 μM) and Adenosine deaminase in a total volume of 50 μL for 30 minutes. Dilution was realised in Hamf's F12/cAMP-d2 conjugate according to the manufacturer protocol, without serum. […] The plate was incubated at room temperature for 1 hour and then read using the Pherastar 96-well time-resolved fluorescence plate reader (Ex 340 nm; Em 665/620 nm).
On the technique in general: Time-resolved FRET reads energy transfer from a long-lived donor to a nearby acceptor.

In another data set the test system is adenosine A2A receptor. Put plainly: Antagonist binding to adenosine A2A NPxxY motif alanine mutants (Table 1). Further details: species or system human. As for the experimental part: An alanine scan was carried out in a similar fashion on an adenosine A2A receptor along with the 5HT2C receptor in the presence of the antagonist Mesulergine. Both alanine scans were carried out in order to further stabilize the antagonist conformation. […] The motif in Adenosine A2A is NPFIY (SEQ ID NO: 364) and for the 5HT2C is NPLVY (SEQ ID NO: 363). Therefore mutations in this region of the receptor contain stabilising mutations specific to the agonist conformation and detrimentally effect antagonist binding.
Adenosine A2A receptor was solubilised from transiently transfected mammalian cells about 36 hours post transfection, in 50 mM Tris pH7.4/400 mM NaCl/0.5% DDM and protease inhibitor. Cell lysates were left at 4° C. on a rotator and then cleared by centrifugation at 13,200 rpm for 20 minutes at 4° C. Solubilised receptors were then purified on Ni-NTA beads and eluted with 50 mM histidine. The eluted receptor was used in radioligand binding assay. The Tm was determined by incubating 108 μl of the eluate with Zm241385 radioligand at a final concentration of 100 nM for one hour at 4° C. The six ligand incubations are then incubated at six different temperatures from 20° C. to 50° C., for thirty minutes. Receptor bound and free radioligand were separated using G25 Sephadex spin columns.

B1: A2A-WT: wild type human adenosine A2A receptor, A2AR-(2-316) (protein, UniProt P29274 2-316, looked up, fragment)
chain: PIMGSSVYITVELAIAVLAILGNVLVCWAVWLNSNLQNVTNYFVVSLAAADIAVGVLAIPFAITISTGFCAACHGCLFIACFVLVLTQSSIFSLLAIAIDRYIAIRIPLRYNGLVTGTRAKGIIAICWVLSFAIGLTPMLGWNNCGQPKEGKNHSQGCGEGQVACLFEDVVPMNYMVYFNFFACVLVPLLLMLGVYLRIFLAARRQLKQMESQPLPGERARSTLQKEVHAAKSLAIIVGLFALCWLPLHIINCFTFFCPDCSHAPLWLMYLAIVLSHTNSVVNPFIYAYRIREFRQTFRKIIRSHVLRQQEPFKA
In the case of B1, the values for the Tm in the data set on A2A receptor [1] and with A2A receptor [2] were 28.7±0.5 °C and 33.0±0.7 °C, respectively. In addition, the negative logarithm of the EC50 (pEC50) (in general, the negative decadic logarithm of the EC50, by convention in mol/L) with A2A receptor [3] came out at 7.27±0.19. Besides, in the data set with adenosine A2A receptor (antagonist binding), the “% of Wildtype binding” value was 100%. This molecule also showed a DPM1 in the data set with adenosine A2A receptor (antagonist binding, replicate 1) of 13513 DPM. Besides, the DPM2 with adenosine A2A receptor (antagonist binding, replicate 2) is 12949 DPM. Moreover, the “Average - BG” value in the data set on adenosine A2A receptor (average minus background) came out at 12731. The same molecule registered an Average in the data set on adenosine A2A receptor (average of DPM1 and DPM2) of 13231.
